The source of these data is patent US4793986A, “Macromolecular platinum antitumor compounds” (Johnson Matthey, Inc., priority 1987, dated 1988).

For series [1] the following is noted: cited from earlier work.
The subject of another series is L1210. Kind of series: Lifespan summary, L1210. To be noted: i.p.; for AWG D.5: day 5. Format: in vivo, mice.
The test system of a further series is L1210 Leukemia. Kind of series: Effect on L1210 Leukemia. Format: in vivo, mice. To be noted: i.p.; for AWG D.5: day 5.
A further series is described as follows: Pt release. Format: physicochemical. Also noted: unit not given here.
In a further series the test system is B16-F10. Kind of series: In-vitro cytotoxicity testing, B16-F10. To be noted: B16-F10 (murine melanoma). Format: cell-based. From the text:
(§1) IN-VITRO CY[…]^1
(§2) IC50 (ug/ml)/Active Dilution
B16F10 -- Murine melanoma

The next series concerns SW1271. Put plainly: In-vitro cytotoxicity testing, SW1271. Format: cell-based. Particulars: SW1271 (human lung).
Excerpt: as §1, §2

Another series has as its system HCT-116. Kind of series: In-vitro cytotoxicity testing, HCT-116. Format: cell-based. To be noted: HCT-116 (human colon).
Excerpt: as §1, §2

The next series relates to A549. Kind of series: In-vitro cytotoxicity testing, A549. To be noted: A549 (human lung). The series is classed as cell-based.
Excerpt: IN-VITRO CYTOTOXICITY TESTING^1
as §2

Setting [2] is: 4 mg/kg/dose, Q01DX1;1, vehicle BS.
The mark [3] stands for this setting: 6 mg/kg/dose, Q01DX1;1, vehicle BS.
Where [4] appears, read: 8 mg/kg/dose, Q01DX1;1, vehicle BS.
Where [5] appears, read: 10 mg/kg/dose, Q01DX1;1, vehicle BS.
Setting [6] is: pH 5.80, 1 h, 0.1M phosphate buffer.
[7] abbreviates: pH 5.80, 24 h, 0.1M phosphate buffer.
Where [8] appears, read: pH 5.80, 48 h, 0.1M phosphate buffer.
[9] abbreviates: pH 7.00, 1 h, 0.1M phosphate buffer.
Where [10] appears, read: pH 7.00, 24 h, 0.1M phosphate buffer.
Where [11] appears, read: pH 7.00, 48 h, 0.1M phosphate buffer.
[12] abbreviates: pH 8.00, 1 h, 0.1M phosphate buffer.
[13] abbreviates: pH 8.00, 24 h, 0.1M phosphate buffer.
Setting [14] is: pH 8.00, 48 h, 0.1M phosphate buffer.
Setting [15] is: 160 mg/kg/dose, Q01DX1;1, H2O + tween 80.
Setting [16] is: 240 mg/kg/dose, Q01DX1;1, H2O + tween 80.
[17] abbreviates: 320 mg/kg/dose, Q01DX1;1, H2O + tween 80.
The mark [18] stands for this setting: 400 mg/kg/dose, Q01DX1;1, H2O + tween 80.
Setting [19] is: 80 mg/kg/dose, Q01DX1;1, H2O + tween 80.
Where [20] appears, read: 120 mg/kg/dose, Q01DX1;1, H2O + tween 80.

A value given as a limit tells only on which side of the number the result lay.

`N.N.[Cl][Pt][Cl]` [Cisplatin, cis-diamino dichloroplatinum(II)]: the nausea and vomiting entry in series [1] (cisplatin as a drug) was “nausea and vomiting which cause extreme discomfort for the patient”. Also, the “% T/C” value with L1210 (setting [2]) was 129%; with L1210 (setting [3]) it was 157%; in the series with L1210 (setting [4]), 171%; with L1210 (setting [5]), 171%; in the series with L1210 Leukemia (setting [2]) it was 129%; with L1210 Leukemia (setting [3]), 157%. In addition, the “% T/C” value with L1210 Leukemia (setting [4]) is given as 136%; in the series with L1210 Leukemia (setting [5]) it was 171%. Also, the “Med. S.T.” value in the series with L1210 (setting [2]) stood at 9.0; with L1210 (setting [3]), 11.0; in the series on L1210 (setting [4]), 12.0; in the series with L1210 (setting [5]), 12.0; in the series on L1210 Leukemia (setting [2]), 9.0; in the series on L1210 Leukemia (setting [3]), 11.0. Also, the “Med. S.T.” value in the series with L1210 Leukemia (setting [4]) is listed as 9.5; in the series on L1210 Leukemia (setting [5]), 12.0. Also, the “AWG D.5” value in the series with L1210 (setting [2]) is recorded as -0.7 Gm; in the series with L1210 (setting [3]), -2.1 Gm; with L1210 (setting [4]) it was -2.8 Gm; in the series on L1210 (setting [5]) it was -3.3 Gm; in the series on L1210 Leukemia (setting [2]) it was 0.2 Gm; in the series with L1210 Leukemia (setting [3]), -0.9 Gm. For the same molecule, the figures for the “AWG D.5” value with L1210 Leukemia (setting [4]) and in the series on L1210 Leukemia (setting [5]) were -1.4 Gm and -2.4 Gm, respectively.

For `N.N.O=C([O-])C1(C(=O)[O-])CCC1.[Pt+2]` [carboplatin], the nephrotoxicity result in series [1] (carboplatin, relative to cisplatin) is recorded as “decreased nephrotoxicity”.

Pt-Isoserinato Dextran [Example 5]: the Pt release in “Pt release” (setting [6]) was determined as 9.5; in the series “Pt release” (setting [7]) it was 72.5; in “Pt release” (setting [8]), 88.5; in “Pt release” (pH 5.80, 120 h, 0.1M phosphate buffer), 98.7; in “Pt release” (setting [9]), 8.8; in the series “Pt release” (setting [10]), 61.1. Besides, the Pt release stood at 76.3 in “Pt release” (setting [11]); 89.3 in “Pt release” (pH 7.00, 120 h, 0.1M phosphate buffer); 8.8 in the series “Pt release” (setting [12]); 55.7 in “Pt release” (setting [13]); 66.9 in “Pt release” (setting [14]); 76.2 in “Pt release” (pH 8.00, 120 h, 0.1M phosphate buffer).

By IC50 is commonly meant the concentration needed to halve the response being measured. Turning to “Pt-Malonato Dextran (Method A) [Example 1]”, the IC50 is 426 µg/mL in the series on B16-F10, 408 µg/mL in the series with SW1271, over 500 µg/mL in the series on HCT-116 and over 500 µg/mL with A549. Further, the Pt release in the series “Pt release” (pH 5.60, 2 h) is 0.6; in “Pt release” (pH 5.60, 24 h) it was 4.3; in “Pt release” (pH 5.60, 48 h), 6.8; in the series “Pt release” (pH 5.60, 72 h), 8.2; in the series “Pt release” (pH 6.80, 2 h) it was 0.5; in the series “Pt release” (pH 6.80, 24 h), 6.6. Further, the Pt release in “Pt release” (pH 6.80, 48 h) is 10.2; in the series “Pt release” (pH 6.80, 72 h), 13.3; in the series “Pt release” (pH 8.30, 2 h), 1.3; in “Pt release” (pH 8.30, 24 h) it was 7.2; in “Pt release” (pH 8.30, 48 h) it was 10.3; in the series “Pt release” (pH 8.30, 72 h) it was 13.8.

“Pt-Malonato Dextran (Method B) [Example 2]”: the IC50 was 332 µg/mL with B16-F10, over 500 µg/mL with SW1271 and 430 µg/mL with HCT-116. Also, the “% T/C” value stood at 107% in the series on L1210 (setting [15]); 121% with L1210 (setting [16]); 114% in the series with L1210 (setting [17]); 143% in the series with L1210 (setting [18]); 100% in the series on L1210 Leukemia (setting [19]); 100% with L1210 Leukemia (setting [20]). In the series with L1210 Leukemia (setting [15]), the “% T/C” value worked out at 107%. The “Med. S.T.” value with L1210 (setting [15]) came out at 7.5; with L1210 (setting [16]), 8.5; in the series with L1210 (setting [17]), 8.0; in the series on L1210 (setting [18]), 10.0; in the series on L1210 Leukemia (setting [19]), 7.0; with L1210 Leukemia (setting [20]), 7.0. For the same molecule, the “Med. S.T.” value in the series on L1210 Leukemia (setting [15]) is recorded as 7.5.

Consider Pt-Malonato Inulin [Example 7], for which the Pt release in “Pt release” (pH 5.42, 1 h) is reported as 4.7; in “Pt release” (pH 5.42, 24 h), 18.1; in “Pt release” (pH 5.42, 48 h) it was 20.5; in the series “Pt release” (pH 5.42, 72 h), 26.2; in the series “Pt release” (pH 5.42, 144 h), 27.5; in “Pt release” (pH 6.76, 1 h) it was 3.1. For the same molecule, the Pt release in the series “Pt release” (pH 6.76, 24 h) came to 15.2; in “Pt release” (pH 6.76, 48 h), 18.3; in “Pt release” (pH 6.76, 72 h) it was 20.0; in “Pt release” (pH 6.76, 144 h), 22.7; in the series “Pt release” (pH 7.86, 1 h), 4.9; in “Pt release” (pH 7.86, 24 h) it was 17.8. Moreover, the Pt release in the series “Pt release” (pH 7.86, 48 h) was 21.0; in “Pt release” (pH 7.86, 72 h) it was 21.9; in the series “Pt release” (pH 7.86, 144 h), 28.8.

In the case of Pt-Malonato Xylan [Example 9], the Pt release in the series “Pt release” (setting [6]) was determined as 3.1; in “Pt release” (setting [7]), 22.6; in the series “Pt release” (setting [8]), 29.8; in “Pt release” (pH 5.80, 72 h, 0.1M phosphate buffer), 32.8; in the series “Pt release” (pH 5.80, 144 h, 0.1M phosphate buffer), 41.9; in the series “Pt release” (setting [9]), 2.1. Moreover, the Pt release in “Pt release” (setting [10]) is 17.9; in “Pt release” (setting [11]) it was 23.7; in the series “Pt release” (pH 7.00, 72 h, 0.1M phosphate buffer) it was 27.5; in the series “Pt release” (pH 7.00, 144 h, 0.1M phosphate buffer) it was 40.9; in “Pt release” (setting [12]), 1.7; in “Pt release” (setting [13]) it was 18.9. Moreover, the Pt release in the series “Pt release” (setting [14]) turned out to be 25.4; in “Pt release” (pH 8.00, 72 h, 0.1M phosphate buffer), 28.2; in “Pt release” (pH 8.00, 144 h, 0.1M phosphate buffer) it was 35.8.

As to “Pt-malonato dextran [Pt-malonato dextran of Example 3]”, the Pt release in the series “Pt release” (pH 5.50, 1 h) was determined as 0.6; in “Pt release” (pH 5.50, 16 h) it was 5.2; in “Pt release” (pH 5.50, 40 h), 6.4; in “Pt release” (pH 5.50, 64 h) it was 7.6; in the series “Pt release” (pH 7.10, 1 h), 0.6; in “Pt release” (pH 7.10, 16 h), 4.2. In addition, the Pt release is given as 4.9 in “Pt release” (pH 7.10, 40 h); 6.1 in “Pt release” (pH 7.10, 64 h); 0.7 in the series “Pt release” (pH 8.20, 1 h); 4.2 in the series “Pt release” (pH 8.20, 16 h); 5.1 in “Pt release” (pH 8.20, 40 h); 6.4 in “Pt release” (pH 8.20, 64 h).
